The source of these data is the supplement of paper PMC7125110.

To fix the notation:
B1: glmS ribozyme (parent)
chain: AUAAAAGCGCCAGAACUACAGAAAUGUAGUUGACGAGGAGGAGGUUUAUCGAAUUUUCGGCGGAUGCCUCCAAA

Holding throughout (details): with glucosamine-6-phosphate
The variants in series [1] derive from B1. Description: self-cleavage kobs at 40 uM GlcN6P; higher = faster cleavage; RNA array. Summed up: (§1)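 Barcoded ribozyme variants were transcribed in situ on sequenced MiSeq chips by E. coli RNA polymerase. At 37 °C, a hybridised Cy3 probe tracked them while glucosamine-6-phosphate (40 μM to 10 mM) in HEPES/KCl/Mg(OAc)2 buffer flowed in and tiles were imaged over ~14 h. Per-tile medians of signals normalised to baseline and to non-cleaving reference variants were fit to one- or two-exponential decays, giving kobs. kcat and KM came from weighted Michaelis–Menten fits across concentrations.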

In series [2] the parent is B1. Description: self-cleavage kobs at 160 uM GlcN6P; higher = faster cleavage; RNA array. Summed up: as §1
The variants in series [3] derive from B1. Description: self-cleavage kobs at 640 uM GlcN6P; higher = faster cleavage; RNA array. Summed up:
as §1

Variants of B1 are the subject of series [4]. Description: self-cleavage kobs at 10000 uM GlcN6P; higher = faster cleavage; RNA array. The procedure, abridged:
as §1

The variants in series [5] derive from B1. Description: self-cleavage kobs at 2500 uM GlcN6P; higher = faster cleavage; RNA array. Summed up:
as §1

± gives the standard error. Variants at the floor of the assay were thinned out.

Take AUAAAAGAGCCAGAACUACAGAAAUGUAGUUGACGAGGAGGAGGUUUAUCGAAUUUUCGGCGGAUGUCUCCAAA [C8A C67U]: in the series with glucosamine-6-phosphate [1], the “self-cleavage kobs at 40 uM GlcN6P” value was less than 1e-05 s⁻¹. In addition, the “self-cleavage kobs at 160 uM GlcN6P” value in the series with glucosamine-6-phosphate [2] is less than 1e-05 s⁻¹. Moreover, the “self-cleavage kobs at 640 uM GlcN6P” value with glucosamine-6-phosphate [3] is less than 1e-05 s⁻¹. In addition, the “self-cleavage kobs at 10000 uM GlcN6P” value in the series with glucosamine-6-phosphate [4] is less than 1e-05 s⁻¹.

For AUAAACGCGCGGGAACUACAGAAAUGUAGUUGACGAGGAGGAGGUUUAUCGAAUUUUCGGCGGAUGCCUUCAAA [A6C C11G A12G C70U], the “self-cleavage kobs at 40 uM GlcN6P” value with glucosamine-6-phosphate [1] is less than 1e-05 s⁻¹.

Consider AUAAAAGCGCCAGAACUACAGAAAUGUAGUUGACGAGGAGGAGGUUUAUCGAAUUUACGGCGGACGCCUCCAAA [U57A U65C], for which, in the series with glucosamine-6-phosphate [1], the “self-cleavage kobs at 40 uM GlcN6P” value is less than 1e-05 s⁻¹. For the same variant, in the series with glucosamine-6-phosphate [3], the “self-cleavage kobs at 640 uM GlcN6P” value is less than 1e-05 s⁻¹.

For the variant AUAAAAGCGCCAGAACUACAGAAAUGUAGUUGACGAGGAGCAGGUUUAUCGAAUUUUCGGCGGCUGCCUCCAAA [G41C A64C], the “self-cleavage kobs at 40 uM GlcN6P” value with glucosamine-6-phosphate [1] was less than 1e-05 s⁻¹. Moreover, the “self-cleavage kobs at 160 uM GlcN6P” value in the series with glucosamine-6-phosphate [2] is less than 1e-05 s⁻¹. Moreover, in the series with glucosamine-6-phosphate [3], the “self-cleavage kobs at 640 uM GlcN6P” value is less than 1e-05 s⁻¹. The “self-cleavage kobs at 2500 uM GlcN6P” value in the series with glucosamine-6-phosphate [5] was less than 1e-05 s⁻¹.

Consider AUAAAAGCGCCAGAAAUACAGAAAUGUAGUUGACGAGGAGGAGGUUUAUCGAAUUUUCGGUGGAUGCCUACAAA [C16A C61U C70A], for which, in the series with glucosamine-6-phosphate [1], the “self-cleavage kobs at 40 uM GlcN6P” value was less than 1e-05 s⁻¹.

On to AUAAAAGAGCCAGAACUACAGAAAUGUAGUUGACGAGGACGAGGUUUAUCGAAUUUUCGGCGGAUGCCUCCAAA [C8A G40C], for which the “self-cleavage kobs at 40 uM GlcN6P” value in the series with glucosamine-6-phosphate [1] was less than 1e-05 s⁻¹. Besides, the “self-cleavage kobs at 160 uM GlcN6P” value with glucosamine-6-phosphate [2] was less than 1e-05 s⁻¹. The “self-cleavage kobs at 640 uM GlcN6P” value with glucosamine-6-phosphate [3] was less than 1e-05 s⁻¹. Also, the “self-cleavage kobs at 2500 uM GlcN6P” value in the series with glucosamine-6-phosphate [5] was less than 1e-05 s⁻¹. Also, the “self-cleavage kobs at 10000 uM GlcN6P” value in the series with glucosamine-6-phosphate [4] is less than 1e-05 s⁻¹.

As for AUAAAAGCGUCAGAACUACAGAAAUGUAGUUGACGAGGAGGAGGUUUAUGGAAUUUGCGGCGGAUGCCUCCAAA [C10U C50G U57G], the “self-cleavage kobs at 40 uM GlcN6P” value with glucosamine-6-phosphate [1] is 0.000105 ± 2.4e-05 s⁻¹. In addition, in the series with glucosamine-6-phosphate [4], the “self-cleavage kobs at 10000 uM GlcN6P” value came to 4.71e-05 ± 1.6e-05 s⁻¹.

On to AUAAAAGCGCCAGAACUACAGAAAUGUAGUUGACGAGUAGGAGGUUUAUCGAAUUUUCGGAGGAUGUCUCCAAA [G38U C61A C67U], for which the “self-cleavage kobs at 40 uM GlcN6P” value in the series with glucosamine-6-phosphate [1] came out at 8.86e-05 ± 3e-05 s⁻¹. Further, the “self-cleavage kobs at 10000 uM GlcN6P” value in the series with glucosamine-6-phosphate [4] worked out at 8.02e-05 ± 2.6e-05 s⁻¹.

Take AUAAAAGCGCCACAACUACAGAAAUGUAGUUGACGAGGAGGAGGUUUAUCGAAUUUUCGGCGUAUGCCUCCAAA [G13C G63U]: the “self-cleavage kobs at 40 uM GlcN6P” value in the series with glucosamine-6-phosphate [1] is less than 1e-05 s⁻¹. Besides, the “self-cleavage kobs at 2500 uM GlcN6P” value with glucosamine-6-phosphate [5] is less than 1e-05 s⁻¹.

In the case of AUAAAAGCGCCAGAAUUACAGAAAUGUAGUUGACGAGGAGGAGGUUUAUCGAAUUUUCGGCGGAUGCCUCUAAA [C16U C71U], in the series with glucosamine-6-phosphate [1], the “self-cleavage kobs at 40 uM GlcN6P” value came to 0.000761 ± 6.6e-05 s⁻¹. For the same variant, the “self-cleavage kobs at 160 uM GlcN6P” value in the series with glucosamine-6-phosphate [2] was determined as 0.00136 ± 0.00015 s⁻¹. Further, in the series with glucosamine-6-phosphate [3], the “self-cleavage kobs at 640 uM GlcN6P” value was determined as 0.00431 ± 0.00077 s⁻¹. Further, in the series with glucosamine-6-phosphate [5], the “self-cleavage kobs at 2500 uM GlcN6P” value is 0.0356 ± 0.017 s⁻¹. Moreover, the “self-cleavage kobs at 10000 uM GlcN6P” value with glucosamine-6-phosphate [4] was 0.0301 ± 0.0059 s⁻¹.

Turning to AUAAAGGCGCCAGAACUACAGAAAUGUAGUUGACGAGGAGGAGGAUUAUCGAAUUUUCGCCGGAUGCCUCCAAA [A6G U45A G60C], the “self-cleavage kobs at 40 uM GlcN6P” value with glucosamine-6-phosphate [1] was less than 1e-05 s⁻¹. For the same variant, the “self-cleavage kobs at 10000 uM GlcN6P” value in the series with glucosamine-6-phosphate [4] was less than 1e-05 s⁻¹.

In the case of AUAAAAGCACCAGAACUACAGAAAUGUAGUUGACGAGGAGGCGGUUUAUCGAAUUUUCGGCGGAUGCCUCGAAA [G9A A42C C71G], the “self-cleavage kobs at 40 uM GlcN6P” value with glucosamine-6-phosphate [1] is less than 1e-05 s⁻¹.

Regarding AUAAAAGCGCCAGAACUACAGAAAUUUAGUUGACGAGGAGGAGGUUUAUCGAAUUUUCGGCGGAUGCCUUCAAA [G26U C70U], the “self-cleavage kobs at 40 uM GlcN6P” value with glucosamine-6-phosphate [1] was determined as 0.000967 ± 0.00041 s⁻¹. In addition, the “self-cleavage kobs at 160 uM GlcN6P” value with glucosamine-6-phosphate [2] came to 0.00126 ± 0.00046 s⁻¹. Moreover, in the series with glucosamine-6-phosphate [5], the “self-cleavage kobs at 2500 uM GlcN6P” value was found to be 0.000552 ± 0.0002 s⁻¹.

Regarding AUAAAAGCGCCAAACCUACAGAAAUGUAGUUGACGAGUAGGAGGUUUGUCGCAUUUUCGGCGGAUGCCUCCAAA [G13A A15C G38U A48G A52C], the “self-cleavage kobs at 40 uM GlcN6P” value with glucosamine-6-phosphate [1] was less than 1e-05 s⁻¹. Also, the “self-cleavage kobs at 10000 uM GlcN6P” value with glucosamine-6-phosphate [4] was less than 1e-05 s⁻¹.

Consider AUAAAAGCGCCAGAACUACAGAAAUGUAGUUGACAAGGAGGAGGUUUAUCGAAUUCUUGGCGGAUGCCUCCAAA [G35A U56C C58U], for which the “self-cleavage kobs at 40 uM GlcN6P” value in the series with glucosamine-6-phosphate [1] was less than 1e-05 s⁻¹. In addition, in the series with glucosamine-6-phosphate [4], the “self-cleavage kobs at 10000 uM GlcN6P” value is less than 1e-05 s⁻¹.
